Assay results taken from PMC6713926.
Several values for one entry are separate records, joined by “and”; a condition that tells them apart may be missing. Equal entries are not always repeated.

Target: Biotinylated C3b (human) (UniProt P01024)
Assay: BLI; biotinylated C3b on streptavidin sensors; FPht variants at 100 to 1.56 μg/mL, 60 s steps; 30°C; 20 mM MES pH 6.0, 100 mM NaCl, 0.05% Tween, 1 mg/mL BSA; steady state 1:1 fit (for WT also kinetic analysis)

Sequence of Biotinylated C3b (human) (P01024 23-667, chain 1 of 2): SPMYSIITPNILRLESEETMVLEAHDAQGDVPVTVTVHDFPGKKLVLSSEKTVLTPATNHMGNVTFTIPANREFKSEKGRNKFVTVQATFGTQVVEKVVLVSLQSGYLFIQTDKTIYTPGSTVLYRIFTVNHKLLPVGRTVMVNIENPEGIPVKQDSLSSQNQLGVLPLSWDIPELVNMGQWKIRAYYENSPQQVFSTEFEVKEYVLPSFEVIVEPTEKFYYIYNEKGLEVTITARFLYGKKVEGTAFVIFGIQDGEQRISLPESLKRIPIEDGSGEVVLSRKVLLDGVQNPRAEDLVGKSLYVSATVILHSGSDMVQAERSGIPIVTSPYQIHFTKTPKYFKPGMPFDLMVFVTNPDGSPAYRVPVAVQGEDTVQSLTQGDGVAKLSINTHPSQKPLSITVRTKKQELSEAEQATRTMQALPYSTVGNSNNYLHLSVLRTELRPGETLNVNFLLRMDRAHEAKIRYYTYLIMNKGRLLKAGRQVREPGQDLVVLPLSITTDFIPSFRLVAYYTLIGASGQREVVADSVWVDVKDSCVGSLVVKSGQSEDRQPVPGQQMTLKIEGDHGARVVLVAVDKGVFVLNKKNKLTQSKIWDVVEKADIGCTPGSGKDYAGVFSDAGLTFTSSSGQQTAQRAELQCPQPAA
Sequence of Biotinylated C3b (human) (P01024 749-1663, chain 2 of 2): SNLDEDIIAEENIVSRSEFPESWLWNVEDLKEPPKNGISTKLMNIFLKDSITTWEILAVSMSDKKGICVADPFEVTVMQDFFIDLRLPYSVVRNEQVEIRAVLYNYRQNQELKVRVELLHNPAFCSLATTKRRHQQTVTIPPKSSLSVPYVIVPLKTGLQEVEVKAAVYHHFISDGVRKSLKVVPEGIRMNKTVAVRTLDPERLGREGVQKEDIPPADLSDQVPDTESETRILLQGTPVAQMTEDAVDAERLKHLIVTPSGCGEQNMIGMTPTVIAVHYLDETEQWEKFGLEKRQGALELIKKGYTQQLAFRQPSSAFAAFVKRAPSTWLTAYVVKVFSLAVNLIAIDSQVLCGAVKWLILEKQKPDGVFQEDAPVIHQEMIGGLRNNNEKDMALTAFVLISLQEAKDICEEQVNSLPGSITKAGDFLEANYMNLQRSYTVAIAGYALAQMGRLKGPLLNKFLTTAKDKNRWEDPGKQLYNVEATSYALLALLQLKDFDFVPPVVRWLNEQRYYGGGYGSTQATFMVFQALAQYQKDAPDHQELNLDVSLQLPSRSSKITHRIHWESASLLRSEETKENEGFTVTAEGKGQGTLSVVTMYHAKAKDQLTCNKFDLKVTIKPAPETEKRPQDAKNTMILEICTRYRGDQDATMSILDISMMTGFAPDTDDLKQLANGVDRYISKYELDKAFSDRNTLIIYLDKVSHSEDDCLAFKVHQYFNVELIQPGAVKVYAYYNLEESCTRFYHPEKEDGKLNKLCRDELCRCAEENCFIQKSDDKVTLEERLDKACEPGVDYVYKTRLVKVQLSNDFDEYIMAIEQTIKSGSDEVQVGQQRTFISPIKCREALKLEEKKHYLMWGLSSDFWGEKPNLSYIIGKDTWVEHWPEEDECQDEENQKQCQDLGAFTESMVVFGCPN

## FPht, monomeric FP head-tail protein from co-expression of FPh and FPt (complex)
  Kd: 320 nM and 350 nM
